Reference: US8765431B2, “Method for enzymatic production of decarboxylated polyketides and fatty acids” (The Regents of the University of Michigan, priority 2009, dated 2014)
Residue numbers refer to the chain shown, from its start. Names and notes keep the numbering of the source.

How the values were obtained:
Assay type in all cases: biochemical, Lyngbya majuscula
CurM ST and TE = test: Coupled ST-TE one-pot reaction (HPLC, LC-MS); details: from model substrate (3R)-1-ACP
Method: With the order of the ST and TE reactions established for the acyl-ACP intermediate, the next investigation was to couple the two reactions in one pot. […] Under the same reaction conditions, it was discovered that the CurM TE catalyzed hydrolysis reaction with sulfonated product (3R)-2-ACP was about 800-fold faster than with (3R)-1-ACP. Moreover, TE catalyzed hydrolysis of (3R)-2-ACP was about 120-fold faster than (3S)-2-ACP (FIG. 7).
Next, experiments were performed to assess whether the proposed sulfonated intermediate (3R)-2 (FIG. 3A) is released following hydrolysis of (3R)-2-ACP, or whether formation of 3 (FIG. 3B) occurs directly by a coordinated decarboxylative elimination process. First, the ST-TE coupled reactions with (3R)-1-ACP were analyzed by LC-MS and a single product was confirmed to be (3R)-2 by co-injection with the corresponding authentic standard (FIG. 3A iii). Due to the expected volatility of 3, the contents of the coupled reaction were extracted with hexane and analyzed by GC-MS. A second product was thus detected and confirmed to be 3 by co-injection with the corresponding authentic standard (FIG. 3B iv). […]
The ST and TE assays were performed using R)-1-ACP and (3S)-1-ACP substrates. […] All the reactions were incubated at room temperature, quenched by addition of 10% formic acid, and analyzed by reverse-phase HPLC using Jupiter C4 column. […]

CurM TE [1] = test: TE-catalyzed decarboxylative elimination to 3 (GC-MS); details: in 1 hour; free authentic (synthetic) substrate
Method: Next, experiments were performed to assess whether the proposed sulfonated intermediate (3R)-2 (FIG. 3A) is released following hydrolysis of (3R)-2-ACP, or whether formation of 3 (FIG. 3B) occurs directly by a coordinated decarboxylative elimination process. […] Due to the expected volatility of 3, the contents of the coupled reaction were extracted with hexane and analyzed by GC-MS. A second product was thus detected and confirmed to be 3 by co-injection with the corresponding authentic standard (FIG. 3B iv). […]
The ST and TE assays were performed using R)-1-ACP and (3S)-1-ACP substrates. […] All the reactions were incubated at room temperature, quenched by addition of 10% formic acid, and analyzed by reverse-phase HPLC using Jupiter C4 column. The ACP fractions were collected, lyophilized and analyzed by FTICR-MS and IRMPD. […]
The samples and authentic standard were analyzed by a 6890N gas chromatograph equipped with a 5973 mass selective quadrupole detector (Agilent). […] Total ion chromatograms were recorded using a mass range of 60-420 amu, and the selective ion chromatograms were recorded by monitoring the two to three most abundant masses plus the parent masses of target compounds.

CurM TE [2] = test: Steady-state kinetic analysis of TE hydrolysis using CoA-linked substrates; details: steady-state kinetics
Method: (3S)-1-ACP and (3R)-1-ACP were prepared as the TE substrates to test its stereoselectivity for the β-hydroxyl group. The reactions were analyzed by reverse-phase HPLC, and the separated ACP fractions were examined by Fourier transform ion cyclotron resonance mass spectrometry (FTICR-MS) and infrared multiphoton dissociation (IRMPD) (16) techniques. In addition, the chain-release products were detected by LC-MS and confirmed by co-injection with authentic standards. […] However, TE-catalyzed hydrolysis of (3S)-1-ACP was about 5-fold faster than with (3R)-1-ACP (FIG. 5A). […] However, based on bioinformatic analysis of PKS ketoreductase (KR) sequences (17), the CurM KR was predicted to reduce the β-keto to a (R)-β-hydroxyl group in the full-length chain intermediate.
HPLC-based analyses of the TE hydrolysis were performed using XBridge C18 column (4.6×250 mm, 5 μm, Waters) on the Gold HPLC system equipped with an autosampler and controlled by 32 Karat software (Beckman Coulter). Samples were eluted with a linear gradient from 10% to 90% of MeOH/H2O (10 mM CH3CO2NH4). For steady state kinetic studies. TE hydrolysis was examined in 40 μl 50 mM Tris-HCl buffer (pH 7.0) with 100 μM, 200 μM, 500 μM, 1000 μM and 2000 μM (3R)-1-CoA or (3S)-1-CoA. […] The TE hydrolysis reaction was measured by consumption of CoA substrates. […]

CurM ST = test: ST sulfonation of free acid and ACP-linked substrates (LC-MS, HPLC, FTICR-MS); details: in the presence of ST and PAPS
Method: Based on the known mechanism of ST enzyme function, CurM ST was predicted to bind to PAPS, and transfer a sulfonate moiety to the β-hydroxyl group of the intermediate tethered to or released from CurM ACP (FIG. 1B). First, the ST substrate was identified by testing the sulfonation of 1 and 1-ACP. The sulfonation of 1 was analyzed by LC-MS, and that of 1-ACP was examined by HPLC and FTICR-MS. […] Likewise, the stereoselectivity of ST for the β-hydroxyl group was determined by comparing the sulfonation efficiency of (3S)-1-ACP and (3R)-1-ACP. Under the same reaction condition, ST sulfonation with (3R)-1-ACP was about 2.5-fold faster than with (3S)-1-ACP (FIG. 6). Thus, CurM ST stereoselectivity is consistent with the predicted formation of a (R)-β-hydroxyl group by CurM KR.
The ST and TE assays were performed using R)-1-ACP and (3S)-1-ACP substrates. Typically, for the ST reactions, about 300 μM ACP-linked substrate was added with 2 μM ST and 2 mM PAPS in 50 mM Tris-HCl buffer (pH 7.0). For the TE reactions, about 300 μM ACP-linked substrate was added with 2 μM TE in 50 mM Tris-HCl buffer (pH 7.0). All the reactions were incubated at room temperature, quenched by addition of 10% formic acid, and analyzed by reverse-phase HPLC using Jupiter C4 column. The ACP fractions were collected, lyophilized and analyzed by FTICR-MS and IRMPD. […]

[3] = tested on: ACP with the sulfated substrate; test: TE point mutant activity assay (liberation of holo ACP, HPLC); details: for Activity compared to wild type: 1 min; for % Activity: relative to wild type CurM TE and free hydrolysis without enzyme, quenched after 1 min
Method: The activity of these mutants was tested using the same assay described previously (28). A one-pot reaction was used where CurM ACP was loaded with a synthesized substrate mimic (FIG. 1B) using Svp, after which CurM ST sulfates the β-hydroxyl. Lastly, CurM TE was added and the reaction is quenched after 1 minute. The liberation of holo ACP was detected by a shift on the HPLC. The ratio of holo ACP to ACP with the sulfated substrate was measured. Mutant activity was compared to the activity of wild type CurM TE and free hydrolysis without enzyme in order to obtain percent activity for the mutants (Table 3).
TE activity was assayed using a modification of the protocol developed by Gu et. al. (28). To generate the sulfated substrate for the TE assay, 225 μM loaded ACP was incubated with 5 μM ST, 1.75 mM PAPS (Sigma), in 100 mM Tris pH 7.9 at room temperature for 10 min. Four μM TE was then added to the mixture and the reaction was quenched with 10% formic acid after 1 min. The samples were analyzed by reverse phase HPLC using a Jupiter C4 column (250×2.0 mm, 5 μm, 300 Å, Phenomenex) and a linear elution gradient from 30% to 90% CH3CN (0.1% CF3CO2H)/H2O (0.1% CF3CO2H) over 45 min.

**Q.** What does the source list for CCCCCCCCCC(C[C@H](CC(=O)O)OS(=O)(=O)O)OC (mixture of isomers) [(3R)-2, (3R,5RS)-3-Sulfonatooxy-5-methoxytetradecanoic acid]?
**A.** Level of (3R)-2 as a product of the TE reaction (CurM ST and TE): greater than 50%; Conversion to 3 by TE (CurM TE [1]): about 2 % conversion

**Q.** CCCCCCCCCC(C[C@H](O)CC(=O)O)OC (mixture of isomers) [(3S)-1, (3S,5RS)-3-Hydroxy-5-methoxytetradecanoic acid] was tested. Which “Substrate preference of TE” value (CurM TE [2]) did it give?
**A.** preferred substrate

**Q.** CCCCCCCCCC(CC(O)CC(=O)O)OC (stereo not shown) [compound 1] was tested. Which “Substrate conversion by ST” value (CurM ST) did it give?
**A.** No substrate conversion

B1: H266R: CurM TE control mutation in the catalytic triad (protein)
chain: MEEKFLEFGGNQICLCSWGSPEHPVVLCIHGILEQGLAWQEVALPLAAQGYRVVAPDLFGHGRSSHLEMVTSYSSLTFLAQIDRVIQELPDQPLLLVGHSMGAMLATAIASVRPKKIKELILVELPLPAEESKKESAVNQLTTCLDYLSSTPQHPIFPDVATAASRLRQAIPSLSEEFSYILAQRITQPNQGGVRWSWDAIIRTRSILGLNNLPGGRSQYLEMLKSIQVPTTLVYGDSSKLNRPEDLQQQKMTMTQAKRVFLSGGRNLHIDAAAALASLILTS
**Q.** Which “Activity compared to wild type” value [3] does the source give for B1 here?
**A.** 1 % of WT

**Q.** And the “% Activity” value [3]?
**A.** 1.4 ± 0.2%

B2: R205Q: CurM TE point mutant R205Q (protein)
chain: B1 chain with R205Q, R266H
**Q.** Which “% Activity” value [3] does the source give for B2 here?
**A.** 1.8 ± 0.3%

B3: N211A: CurM TE mutant of conserved Asn interacting with R205 (protein)
chain: B1 chain with N211A, R266H
**Q.** Which results are given for B3?
**A.** Activity compared to wild type [3]: catalytic activity, but at a reduced rate; % Activity [3]: 54.7 ± 1.8%

B4: N267A: CurM TE mutant of conserved Asn next to the catalytic His (protein)
chain: B1 chain with R266H, N267A
**Q.** B4 was tested. Which “Activity compared to wild type” value [3] did it give?
**A.** catalytic activity, but at a reduced rate

**Q.** And the “% Activity” value [3]?
**A.** 38.4 ± 3.1%

B5: R205E: CurM TE point mutant R205E (protein)
chain: B1 chain with R205E, R266H
**Q.** How did the “% Activity” value [3] turn out when B5 was run?
**A.** 2.3 ± 2.1%

B6: R205A: CurM TE point mutant R205A (protein)
chain: B1 chain with R205A, R266H
**Q.** How did the “% Activity” value [3] turn out when B6 was run?
**A.** 6.1 ± 3.1%
